Source: patent publication US20150104388A1

Target: PAC1 receptor (human) (UniProt P41586)
Assay: cell-based or functional assay

Sequence of PAC1 receptor (human) (P41586 21-468): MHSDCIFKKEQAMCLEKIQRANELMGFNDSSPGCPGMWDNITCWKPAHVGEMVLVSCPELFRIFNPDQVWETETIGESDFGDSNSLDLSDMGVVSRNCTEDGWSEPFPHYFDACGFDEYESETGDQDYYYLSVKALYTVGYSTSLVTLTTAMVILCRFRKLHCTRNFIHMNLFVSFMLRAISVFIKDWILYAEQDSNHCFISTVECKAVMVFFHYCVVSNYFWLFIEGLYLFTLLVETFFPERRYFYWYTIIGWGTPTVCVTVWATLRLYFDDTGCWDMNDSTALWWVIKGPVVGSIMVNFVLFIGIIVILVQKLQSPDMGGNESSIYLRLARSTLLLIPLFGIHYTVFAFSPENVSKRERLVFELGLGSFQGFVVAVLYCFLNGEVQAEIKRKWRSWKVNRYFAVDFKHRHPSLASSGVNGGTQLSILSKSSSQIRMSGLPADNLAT

fold lower potency as inhibitor of multiple myeloma cell proliferation, against the corresponding analog with pipecolic acid in position 3: 10000 fold
Substance: PACAP38 analog with nipecotic acid in position 3 (peptide)
